How the values were obtained:
[1] = target: T1, human ICOS on human T cells (human, UniProt Q9Y6W8 21-167); assay: flow cytometry, activated human CD4 T cells, percent FITC positive, donor 1123F59
T1 construct: endogenous receptor on primary cells; also called ICOS on CD4+ and CD8+ T cells of healthy human donors
T1 sequence: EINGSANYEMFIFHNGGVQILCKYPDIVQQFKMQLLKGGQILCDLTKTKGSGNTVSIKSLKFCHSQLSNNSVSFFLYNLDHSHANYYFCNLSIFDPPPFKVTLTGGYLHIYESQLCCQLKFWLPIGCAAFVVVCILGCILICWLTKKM
Protocol: (§1) Binding of H2L5 hIgG4PE was assessed in both naive and activated CD3+ T cells.
(§2) Either naive and/or activated CD3+ T cells were re-suspended in PBS with 0.1% BSA (FACS Buffer) containing Human FcR Blocking Solution at 2×10⁶ cells/mL (5 μl FcR Blocking Solution+[…] FACS Buffer per 1 mL). At a concentration of 2×10⁵ cells/well, 100 μl cells were placed into 2 mL 96 well Assay Blocks and incubated at room temperature for 15 minutes. During the incubation, a titration of the binding antibodies, anti-ICOS (H2L5 hIgG4PE) or IgG4 Isotype Control antibody was prepared as a 2× concentration. […] Following the binding incubation, cells were washed twice in 1 mL of FACS buffer, centrifuging at 400×g for 5 minutes at room temperature.
(§3) Data acquisition and compensation were performed on BD FACS instruments, LSR Fortessa X-20 or FACS Canto II using BD Diva (ver. 8.0) software. Data analysis employed Flow Jo software (ver.10.0.8r1). Results are reported as both MFI (Median Fluorescence Intensity) and Percent of cells positive for human IgG kappa light chain FITC staining out of the total live cells or appropriate parent population. EC50s were determined using Graphpad Prism 5 software (ver. 5.04) with non-linear regression of transformed data (X=(log(X)) using a variable slope with 4 parameters (log(Agonist) vs. response—Variable slope).

[2] = target: T1, human ICOS on human T cells; assay: flow cytometry, activated human CD8 T cells, FITC MFI, donor 1124F36
Protocol: as §1, §2, §3

[3] = target: T1, human ICOS on human T cells; assay: flow cytometry, activated human CD8 T cells, FITC MFI, donor 1173F42
Protocol: as §2, §3

[4] = target: T1, human ICOS on human T cells; assay: flow cytometry, activated human CD8 T cells, percent FITC positive, median of donors
Protocol: as §1, §2, §3

[5] = target: T1, human ICOS on human T cells; assay: flow cytometry, activated human CD8 T cells, FITC MFI, donor 1149M52
Protocol: as §1, §2, §3

[6] = target: T1, human ICOS on human T cells; assay: flow cytometry, activated human CD4 T cells, FITC MFI, donor 1124F36
Protocol: as §1, §2, §3

[7] = target: T1, human ICOS on human T cells; assay: flow cytometry, activated human CD4 T cells, percent FITC positive, donor 1141F45
Protocol: as §2, §3

[8] = target: T1, human ICOS on human T cells; assay: flow cytometry, activated human CD4 T cells, percent FITC positive, donor 2100M39
Protocol: as §2, §3

[9] = target: T1, human ICOS on human T cells; assay: flow cytometry, activated human CD4 T cells, percent FITC positive, median of donors
Protocol: as §1, §2, §3

[10] = target: T1, human ICOS on human T cells; assay: flow cytometry, activated human CD8 T cells, percent FITC positive, donor 1124F36
Protocol: as §1, §2, §3

[11] = target: T1, human ICOS on human T cells; assay: flow cytometry, activated human CD4 T cells, FITC MFI, donor 1141F45
Protocol: as §1, §2, §3

[12] = target: T1, human ICOS on human T cells; assay: flow cytometry, activated human CD4 T cells, percent FITC positive, donor 1149M52
Protocol: as §1, §2, §3

[13] = target: T1, human ICOS on human T cells; assay: flow cytometry, activated human CD4 T cells, FITC MFI, donor 1173F42
Protocol: as §2, §3

human FcγR IIIa V158 = target: T2, human FcγR IIIa V158 (human, UniProt P08637 17-208); assay: affinity to human Fcγ receptors (Table 6; NB = no binding); method not described
T2 construct: allotype with Val at position 158 as printed

human FcγR IIa H131 = target: T3, human FcγR IIa H131 (human, UniProt P12318 36-218, limits assumed); assay: as above
T3 sequence (looked up): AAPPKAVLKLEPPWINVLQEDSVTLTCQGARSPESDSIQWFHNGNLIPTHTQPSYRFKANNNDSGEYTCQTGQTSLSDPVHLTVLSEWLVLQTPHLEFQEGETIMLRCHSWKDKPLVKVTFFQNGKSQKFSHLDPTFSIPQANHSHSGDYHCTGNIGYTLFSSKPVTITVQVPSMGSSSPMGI

human FcγR IIIa F158 = target: T4, human FcγR IIIa F158 (human, UniProt P08637 17-208); assay: as above
T4 construct: allotype with Phe at position 158 as printed

[14] = target: T1, human ICOS on human T cells; assay: flow cytometry, activated human CD8 T cells, FITC MFI, median of donors
Protocol: as §2, §3

[15] = target: T1, human ICOS on human T cells; assay: flow cytometry, activated human CD8 T cells, FITC MFI, mean of donors
Protocol: as §1, §2, §3

T4 sequence (P08637 17-208 limits assumed): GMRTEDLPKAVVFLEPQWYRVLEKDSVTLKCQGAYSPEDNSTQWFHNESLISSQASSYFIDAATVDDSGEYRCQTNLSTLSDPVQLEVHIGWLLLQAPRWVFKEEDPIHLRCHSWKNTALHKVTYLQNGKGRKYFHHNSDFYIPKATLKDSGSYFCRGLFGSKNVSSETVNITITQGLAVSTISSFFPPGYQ
T2 sequence (P08637 17-208 F176V limits assumed): as the sequence (P08637 17-208 limits assumed) above, with F160V counted along it

EC50 [1]: 0.853 µg/mL
EC50 [2]: 0.564 µg/mL
EC50 [3]: 0.27 µg/mL
EC50 [4]: 0.583 µg/mL
EC50 [5]: 0.74 µg/mL
EC50 [6]: 0.628 µg/mL
EC50 [7]: 0.965 µg/mL
EC50 [8]: 0.814 µg/mL
EC50 [9]: 0.834 µg/mL
EC50 [10]: 0.619 µg/mL
EC50 [11]: 1.27 µg/mL
EC50 [12]: 0.882 µg/mL
EC50 [13]: 0.636 µg/mL
binding result (human FcγR IIIa V158): no binding
binding result (human FcγR IIa H131): no binding
binding result (human FcγR IIIa F158): no binding
EC50 [14]: 0.652 µg/mL
EC50 [15]: 0.525 µg/mL
B1: H2L5 hIgG4PE (antibody)
heavy: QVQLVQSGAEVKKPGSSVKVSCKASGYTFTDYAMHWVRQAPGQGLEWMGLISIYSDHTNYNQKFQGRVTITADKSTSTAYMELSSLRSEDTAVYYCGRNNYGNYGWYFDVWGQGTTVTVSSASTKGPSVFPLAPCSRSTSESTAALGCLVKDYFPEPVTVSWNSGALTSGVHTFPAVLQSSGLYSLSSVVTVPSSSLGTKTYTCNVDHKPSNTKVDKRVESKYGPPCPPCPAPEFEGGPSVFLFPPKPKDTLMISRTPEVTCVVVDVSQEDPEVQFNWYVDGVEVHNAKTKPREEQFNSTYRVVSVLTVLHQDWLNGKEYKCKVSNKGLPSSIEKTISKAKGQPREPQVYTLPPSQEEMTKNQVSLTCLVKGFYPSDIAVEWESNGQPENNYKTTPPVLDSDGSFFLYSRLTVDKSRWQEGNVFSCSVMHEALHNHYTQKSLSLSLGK
light: EIVLTQSPATLSLSPGERATLSCSASSSVSYMHWYQQKPGQAPRLLIYDTSKLASGIPARFSGSGSGTDYTLTISSLEPEDFAVYYCFQGSGYPYTFGQGTKLEIKRTVAAPSVFIFPPSDEQLKSGTASVVCLLNNFYPREAKVQWKVDNALQSGNSQESVTEQDSKDSTYSLSSTLTLSKADYEKHKVYACEVTHQGLSSPVTKSFNRGEC
notes: also called 422 H2L5 hIgG4PE; H2L5 IgG4PE; copies: 2 + 2

From US20200140551A1 (GlaxoSmithKline, published 2020)
